The record followed here is patent US20190119366A1 (ADC THERAPEUTICS, published 2019).

This experiment addresses T1, recombinant human KAAG1 (Kidney associated antigen 1) (human, UniProt Q9UBP8 1-84).
T1 construct: also called KAAG1 protein
T1 sequence: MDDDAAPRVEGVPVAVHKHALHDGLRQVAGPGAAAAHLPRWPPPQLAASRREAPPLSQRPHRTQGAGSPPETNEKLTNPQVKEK
The experiment is described as follows: epitope mapping studies (method not described).

B1: 3G10 anti-KAAG1 antibody (antibody, V domains shown)
VH: EIQLQQSGPELVKPGASVKISCKASGYTFTDNYMNWVKQSHGKSLEWIGDINPYYGTTTYNQKFKGKATLTVDKSSRTAYMELRGLTSEDSAVYYCARDDWFDYWGQGTLVTVSA
VL: DVLMTQTPRSLSVSLGDQASISCRSSQSLLHSNGNTYLEWYLQKPGQPPKVLIYKVSNRFSGVPDRFSGSGSGTDFTLKISGVEAEDLGVYYCFQGSHVPLTFGAGTKLELK
For B1, the binding result is recorded as “binds”.
